Measured values: patent US20160193316A1 (priority 1994, published 2016)

Key:
DRB5*0101 (DR2w2β2) = target: T1, DRB5*0101 (DR2w2β2) (Homo sapiens, UniProt P01903+Q30154); type: binding
T1 construct: expressed in transfected cells; host or cells: L416.3 (fibroblasts) or GM3107

DRB1*0802 (DR8w2) = target: T2, DRB1*0802 (DR8w2) (Homo sapiens, UniProt P01903+P01911, A100R/A103L/A169T/F76Y/H45Y/I96F/K41T/L162R/M171V/P40S/Q125H/Q178H/Q39Y/Q99D/R218S/R42G/S66Y/V115G/W38E); experiment: biochemical; type: binding
T2 construct: endogenous in cells; host or cells: OLL

DRB1*1501 (DR2w2β1) = target: T3, DRB1*1501 (DR2w2β1) (Homo sapiens, UniProt P01903+P01911); experiment: HLA class II peptide binding assay; settings: DR3a motif peptides; unit not given; exemplary 15-mer containing the core sequence
T3 construct: expressed in transfected cells; host or cells: L466.1 (fibroblasts)

DRB1*0301 (DR3) = target: T4, DRB1*0301 (DR3) (Homo sapiens, UniProt P01903+P01911, A100K/A102G/A103R/A169T/F55Y/I96L/K41T/L162R/M171V/P40S/Q125H/Q178H/Q39Y/R42S/S66N/T106N/T262R/W38E/Y61H); experiment: HLA class II peptide binding assay (pH 4.5); settings: for DR3 binding information: DR3a motif peptides, unit not given, exemplary 15-mer containing the core sequence; for DR3 binding data: Table XIXb
T4 construct: endogenous in cells; host or cells: MAT

DRB1*1302 (DR6w19) = target: T5, DRB1*1302 (DR6w19) (Homo sapiens, UniProt P01903+P01911, A100E/A169T/K41T/L162R/M171V/P40S/Q125H/Q178H/Q39Y/Q99D/R42S/S66N/T262R/V115G/W38E/Y61H); experiment: HLA class II peptide binding assay
T5 construct: endogenous in cells; host or cells: H0301
T5 sequence (P01903 26-254, other chains not shown): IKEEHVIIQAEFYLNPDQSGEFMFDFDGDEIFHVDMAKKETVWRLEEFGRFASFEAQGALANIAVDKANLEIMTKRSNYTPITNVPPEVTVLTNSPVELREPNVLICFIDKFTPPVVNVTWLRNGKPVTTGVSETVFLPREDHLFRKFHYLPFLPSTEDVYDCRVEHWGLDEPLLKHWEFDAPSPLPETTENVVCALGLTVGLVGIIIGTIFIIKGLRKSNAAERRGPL

DRB1*0101 (DR1) = target: T6, DRB1*0101 (DR1) (Homo sapiens, UniProt P01903+P01911, A100R/D57E/F55L/F60I/F76Y/I96L/L162R/M171V/P40L/Q125E/R42F/V115G/Y59C); experiment: HLA class II peptide binding assay; settings: for DR1 binding information: DR3a motif peptides, unit not given, exemplary 15-mer containing the core sequence; for DR1 binding data: Table XIXb, Malaria Super Motif Peptides With Binding Data
T6 construct: endogenous in cells; host or cells: LG2
T6 sequence (P01903 26-254 partner, other chains not shown): as the sequence (P01903 26-254, other chains not shown) above

DRB1*1101 (DR5w11) = target: T7, DRB1*1101 (DR5w11) (Homo sapiens, UniProt P01903+P01911, A100R/A169T/A87E/I96F/K41T/L162R/M171V/P40S/Q125H/Q178H/Q39Y/Q99D/R42S/S66Y/T262R/V115G/W38E); experiment: biochemical; type: binding
T7 construct: endogenous in cells; host or cells: Sweig
T7 sequence (P01903 26-254, other chains not shown): as above

DRB1*0701 (DR7) = target: T8, DRB1*0701 (DR7) (Homo sapiens, UniProt P01903+P01911, A100R/A102G/A103Q/D57E/D86V/E43K/F76Y/K127E/L162R/M171V/P40G/Q125H/Q99D/R33Q/R42Y/R54Q/S133A/S66F/T210M/V115G/Y107V/Y59L/Y89S); experiment: biochemical; type: binding
T8 construct: endogenous in cells; host or cells: Pitout

DRB4*0101 (DRw53) = target: T9, DRB4*0101 (DRw53) (Homo sapiens, UniProt P01903+P13762, G164S); experiment: HLA class II peptide binding assay (pH 5.0); settings: for DRw53 binding information: DR3a motif peptides, unit not given, exemplary 15-mer containing the core sequence; for DRw53 binding data: Table XIXb
T9 construct: expressed in transfected cells; host or cells: L257.6 (fibroblasts)

DRB1*0405 (DR4w15) = target: T10, DRB1*0405 (DR4w15) (Homo sapiens, UniProt P01903+P01911, A100R/A169T/D86S/F76Y/I96L/K127E/L162R/M171V/N62H/P40V/Q125Y/R42H/S133A/S149N/S66Y/V115G/V209L/W38E); experiment: HLA class II peptide binding assay; settings: for DR4w15 binding information: DR3a motif peptides, unit not given, exemplary 15-mer containing the core sequence; for DR4w15 binding data: Table XIXb
T10 construct: endogenous in cells; host or cells: KT3

DRB1*0401 (DR4w4) = target: T11, DRB1*0401 (DR4w4) (Homo sapiens, UniProt P01903+P01911, A100K/A169T/F76Y/I96L/K127E/L162R/M171V/N62H/P40V/Q125Y/R42H/S133A/S149N/S66Y/V115G/V209L/W38E); experiment: HLA class II peptide binding assay; settings: for DR4w4 binding information: DR3a motif peptides, unit not given, exemplary 15-mer containing the core sequence; for DR4w4 binding data: Table XIXb
T11 construct: endogenous in cells; host or cells: Preiss
T11 sequence (P01903 26-254 partner, other chains not shown): as the sequence (P01903 26-254, other chains not shown) above

DRB1*1201 (DR5w12) = target: T12, DRB1*1201 (DR5w12) (Homo sapiens, UniProt P01903+P01911, A100R/A169T/D57E/D86V/F55L/H45Y/K41T/L162R/M171V/P40S/Q125H/Q178H/Q39Y/Q99D/R42G/S66L/T262R/V114A/V67L/W38E/Y59H/Y61H/Y89S); experiment: HLA class II peptide binding assay; settings: for DR5w12 binding data: Table XIXb
T12 construct: endogenous in cells; host or cells: Herluf

DRB1*0901 (DR9) = target: T13, DRB1*0901 (DR9) (Homo sapiens, UniProt P01903+P01911, A100R/A103E/D57H/D86V/F55Y/F60I/F76Y/I96F/K127E/L162R/M171V/P40D/Q125H/Q99R/R33Q/R42F/S133A/S66N/T210M/V115G/W38K/Y107V/Y59G/Y89S); experiment: biochemical; type: binding
T13 construct: endogenous in cells; host or cells: HID

[1] = DR3a motif peptides, unit not given, exemplary 15-mer containing the core sequence

| Sequence | DR2w2β2 binding information (DRB5*0101 (DR2w2β2)) | DR8w2 binding information (DRB1*0802 (DR8w2)) | DR3 binding information (DRB1*0301 (DR3)) | DR1 binding information (DRB1*0101 (DR1)) | DR5w11 binding information (DRB1*1101 (DR5w11)) | DR7 binding information (DRB1*0701 (DR7)) | DR2w2β2 binding data (DRB5*0101 (DR2w2β2)) | DR8w2 binding data (DRB1*0802 (DR8w2)) | DRw53 binding data (DRB4*0101 (DRw53)) | DR4w15 binding data (DRB1*0405 (DR4w15)) | DR5w12 binding data (DRB1*1201 (DR5w12)) | DR4w4 binding data (DRB1*0401 (DR4w4)) | DR1 binding data (DRB1*0101 (DR1)) | DR5w11 binding data (DRB1*1101 (DR5w11)) | DR7 binding data (DRB1*0701 (DR7)) | other results |
| --- | --- | --- | --- | --- | --- | --- | --- | --- | --- | --- | --- | --- | --- | --- | --- | --- |
| LYADSAWEN | -0.0010 | -0.0009 | 0.3500 | 0.0002 | -0.0006 | -0.0014 | – | – | – | – | – | – | – | – | – | DR2w2β1 binding information (DRB1*1501 (DR2w2β1)): 0.0005; DR6w19 binding information (DRB1*1302 (DR6w19); [1]): 0.0003 |
| VCNDEVDLY | 0.1300 | -0.0003 | -0.0006 | 0.0003 | 0.0001 | -0.0003 | – | – | – | – | – | – | – | – | – | DRw53 binding information (DRB4*0101 (DRw53)): -0.0010; DR4w15 binding information (DRB1*0405 (DR4w15)): -0.0004; DR2w2β1 binding information (DRB1*1501 (DR2w2β1)): -0.0006; DR4w4 binding information (DRB1*0401 (DR4w4)): -0.0014 |
| VEVEKTASC | -0.0006 | 0.0006 | -0.0041 | 0.0001 | 0.0003 | 0.0073 | – | – | – | – | – | – | – | – | – | DRw53 binding information (DRB4*0101 (DRw53)): 0.0022; DR4w15 binding information (DRB1*0405 (DR4w15)): -0.0014; DR5w12 binding information (DRB1*1201 (DR5w12); [1]): 0.0001; DR4w4 binding information (DRB1*0401 (DR4w4)): 0.0030 |
| VHDLISDMI | – | – | – | – | – | – | 0.0061 | 0.0096 | 0.0940 | 0.0075 | 0.0001 | 0.0310 | 0.0130 | 0.0037 | 0.0100 | DR3 binding data (DRB1*0301 (DR3)): 0.0100; DR6w19 binding data (DRB1*1302 (DR6w19); Table XIXb, DR6w19): 0.0004; DR9 binding data (DRB1*0901 (DR9)): 0.0430 |
| VNDFQISKY | – | – | – | – | – | – | -0.0005 | -0.0003 | -0.0005 | -0.0014 | 0.0001 | -0.0007 | 0.0001 | -0.0002 | -0.0003 | – |
| VNHAVPLAM | – | – | – | – | – | – | – | 0.200 | – | 0.0400 | – | 3.900 | – | – | – | DR3 binding data (DRB1*0301 (DR3)): 0.2300; DR9 binding data (DRB1*0901 (DR9)): 4.000 |
| WDEWSPCSV | – | – | – | – | – | – | -0.0006 | -0.0003 | -0.0006 | -0.0014 | 0.0001 | -0.0007 | 0.0001 | -0.0002 | -0.0003 | – |
| YGRLEIPAI | – | – | – | – | – | – | -0.0005 | 0.0021 | -0.0005 | 0.0170 | 0.0002 | -0.0007 | 0.0004 | -0.0002 | -0.0003 | – |
| YLLMDCSGS | – | – | – | – | – | – | 0.0096 | 0.0007 | -0.0010 | -0.0014 | 0.0001 | 0.0150 | 0.0015 | -0.0004 | 0.0046 | – |
